Source: patent US9556424B2, “1-deoxy-D-xylulose 5-phosphate synthase alleles responsible for enhanced terpene biosynthesis” (GENOPLANTE-VALOR, priority 2010, dated 2017)

Legend:
grape berries = experiment: Terpenol content in grape berry skins as a function of DXS alleles (MO and GW progeny); assay type: in vivo, Vitis vinifera; settings: by DXS genotype in MO and GW progeny, pool of 5 major terpenols
Description: Isolation of Free and Bound Monoterpenols by Solid Phase Extraction (SPE)
For each sampling point, three replicates of terpenol analysis were performed. For each replicate, at least 25 berries were used. Seeds were removed and skins separated from mesocarps. After weighing, skins were ground under liquid nitrogen and then suspended in 40 mL of water after addition of 40 mg of sodium sulphite. The supernatant obtained after a 15-min centrifugation (11400 g at 4° C.) was passed through a glass fibre pre-filter and a glass filter. Twenty microliters of a 1 g/L 4-nonanol solution was added as external standard to allow the quantification of the main terpenols. Extraction of terpenols was adapted from Mateo et al. (1997), ethanol being used instead of methanol. The filtrate was passed through a 1 g phase C18 silica-bonded non-polar SPE column (BOND ELUT JR.), previously washed with 5 mL of methanol and 15 mL of ultra-pure water, at a rate of approximately one drop/s. The sample was then divided in two equal subsamples, one for the analysis of free and glycosidically bound monoterpenols and one for the analysis of free terpenols. Total fractions of free and bound monoterpenols were eluted with 4 mL of absolute ethanol. […]

tobacco leaves = experiment: Agrobacterium-mediated transient co-expression of GES and DXS alleles in tobacco leaves, geraniol by GC-MS; assay type: in vivo, Nicotiana benthamiana; settings: 96 h after infiltration; for increase in geraniol accumulation in tobacco leaves: co-expression with GES, in average
Excerpt: In order to characterize DXS alleles activity, the inventors used Agrobacterium-mediated transient transformation of tobacco (Nicotiana benthamiana), which allows a fast and efficient gene expression in tobacco leaves (Batoko et al., 2000). This approach was already used successfully to characterize genes involved in grapevine secondary metabolism (Schmidlin et al., 2008; Hugueney et al., 2009). MoDXS1, MoDXS2 and GwDXS2 alleles were expressed in tobacco leaves, together with a cDNA encoding the enzyme geraniol synthase (GES) from basilicum (Ocimum basalicum) (Iijima et al., 2004). […] Thus, GC-M5 analyses of tobacco leaves co-expressing GES and DXS alleles allowed an accurate comparison of DXS alleles activity in planta.
Grapevine DXS cDNAs were amplified by PCR using the upstream primer 5′-[…] TACGCTCTCATTTCC-3′ (SEQ ID No11) and the downstream primer 5′-[…]-3′ (SEQ ID No12), and cloned into the pDONR207 Gateway compatible vector (Invitrogen, Carlsbad, Calif.) using Gateway BP clonase (Invitrogen) according to the manufacturer's instructions. DXS cDNAs were sequenced to verify that no mutation had been introduced. For Agrobacterium-mediated transient expression, DXS cDNAs were subsequently transferred into the GATEWAY binary vector pMDC32 (Curtis and Grossniklaus., 2003). Geraniol synthase cDNA from basilicum (Ocimum basilicum) (Iijima et al., 2004) was cloned into the GATEWAY binary vector pMDC83 (Curtis and Grossniklaus., 2003) and expressed as a GFP fusion protein. All constructs were introduced into Agrobacterium tumefaciens strain C58 (pMP90) by electroporation. Nicotiana benthamiana leaves were infiltrated with A. tumefaciens cultures (OD600 0.5) according to Voinnet et al. (2003). Leaf sectors were […] for terpene content 96 h after Agrobacterium infiltration.
For each sampling point, three replicates of terpenol analysis were performed. After weighing, tobacco leaf sectors (about 1 g) were ground under liquid nitrogen and then suspended in 2 mL of ultra-pure water. […]

| Molecule | terpenol content in grape berries (grape berries) | geraniol biosynthesis (tobacco leaves; co-expression with GES in tobacco leaves, versus GES alone) | increase in geraniol accumulation in tobacco leaves (tobacco leaves) |
| --- | --- | --- | --- |
| MoDXS1: typical (wild type) DXS allele shared by Vitis vinifera cv Muscat Ottonel and Gewurztraminer (protein, Vitis Vinifera, typical (wild type) DXS allele shared by Vitis vinifera cv Muscat Ottonel and Gewurztraminer) MALCTLSFPAHFSQAAASNPQRLTPQCSHLFLGVDLQCQSQQRSKARKRPNGVCASLSDREEYHSQRPPTPLLDTINYPIHMKNLSVKELKQLADELRSDVVFNVSKTGGHLGSSLGVVELTVALHYVFNAPQDRILWDVGHQSYPHKILTGRRDQMHTMRQTDGLAGFTKRSESEYDCFGTGHSSTTISAGLGMAVGRDLKGKNNNVIAVIGDGAMTAGQAYEAMNNAGYLDSDMIVILNDNKQVSLPTATLDGPIPPVGALSSALSRLQSNRPLRELREVAKGVTKQIGGPMHELAAKVDEYARGMISGSGSTLFEELGLYYIGPVDGHNIDDLVAILKEVKSTKTTGPVLIHVVTEKGRGYPYAEKAADKYHGVTKFDPATGKQFKSSAPTQSYTTYFAEALIAEAEVDKDIVAIHAAMGGGTGLNLFHRRFPTRCFDVGIAEQHAVTFAAGLACEGIKPFCAIYSSFMQRAYDQVVHDVDLQKLPVKFAMDRAGLVGADGPTHCGAFDVAFMACLPNMVVMAPADEAELFHMVATAAAIDDRPSCFRYPRGNGVGVELPPGNKGIPIEVGRGRILIEGERVALLGYGTAVQSCLVASSLLEQHGLRITVADARFCKPLDHALIRSLAKSHEVLITVEEGSIGGFGSHVAQFLALNGLLDGTTKWSPMVLPDRYIDHGAPADQLAMAGLTPSHIAATVFNILGQTREALEIML | extremely low levels of terpenols | substantial increases |  |
| MoDXS2: DXS allele of Vitis vinifera cv Muscat Ottonel with K284→N mutation (protein, Vitis Vinifera, DXS allele of Vitis vinifera cv Muscat Ottonel with K284→N mutation) MALCTLSFPAHFSQAAASNPQRLTPQCSHLFLGVDLQCQSQQRSKARKRPNGVCASLSDREEYHSQRPPTPLLDTINYPIHMKNLSVKELKQLADELRSDVVFNVSKTGGHLGSSLGVVELTVALHYVFNAPQDRILWDVGHQSYPHKILTGRRDQMHTMRQTDGLAGFTKRSESEYDCFGTGHSSTTISAGLGMAVGRDLKGKNNNVIAVIGDGAMTAGQAYEAMNNAGYLDSDMIVILNDNKQVSLPTATLDGPIPPVGALSSALSRLQSNRPLRELREVANGVTKQIGGPMHELAAKVDEYARGMISGSGSTLFEELGLYYIGPVDGHNIDDLVAILKEVKSTKTTGPVLIHVVTEKGRGYPYAEKAADKYHGVTKFDPATGKQFKSSAPTQSYTTYFAEALIAEAEVDKDIVAIHAAMGGGTGLNLFHRRFPTRCFDVGIAEQHAVTFAAGLACEGIKPFCAIYSSFMQRAYDQVVHDVDLQKLPVKFAMDRAGLVGADGPTHCGAFDVAFMACLPNMVVMAPADEAELFHMVATAAAIDDRPSCFRYPRGNGVGIELPPGNKGIPIEVGRGRILIEGERVALLGYGTAVQSCLVASSLLEQHGLRITVADARFCKPLDHALIRSLAKSHEVLITVEEGSIGGFGSHVAQFLALNGLLDGTTKWSPMVLPDRYIDHGAPADQLAMAGLTPSHIAATVFNILGQTREALEIML |  |  | three time increase |
| GwDXS2: DXS allele of Vitis vinifera cv Gewurztraminer with R306→C mutation (protein, Vitis Vinifera, DXS allele of Vitis vinifera cv Gewurztraminer with R306→C mutation) MALCTLSFPAHFSQAAASNPQRLTPQCSHLFLGVDLQCQSQQRSKARKRPNGVCASLSDREEYHSQRPPTPLLDTINYPIHMKNLSVKELKQLADELRSDVVFNVSKTGGHLGSSLGVVELTVALHYVFNAPQDRILWDVGHQSYPHKILTGRRDQMHTMRQTDGLAGFTKRSESEYDCFGTGHSSTTISAGLGMAVGRDLKGKNNNVIAVIGDGAMTAGQAYEAMNNAGYLDSDMIVILNDNKQVSLPTATLDGPIPPVGALSSALSRLQSNRPLRELREVAKGVTKQIGGPMHELAAKVDEYACGMISGSGSTLFEELGLYYIGPVDGHNIDDLVAILKEVKSTKTTGPVLIHVVTEKGRGYPYAEKAADKYHGVTKFDPATGKQFKSSAPTQSYTTYFAEALIAEAEVDKDIVAIHAAMGGGTGLNLFHRRFPTRCFDVGIAEQHAVTFAAGLACEGIKPFCAIYSSFMQRAYDQVVHDVDLQKLPVKFAMDRAGLVGADGPTHCGAFDVAFMACLPNMVVMAPADEAELFHMVATAAAIDDRPSCFRYPRGNGVGVELPPGNKGIPIEVGRGRILIEGERVALLGYGTAVQSCLVASSLLEQHGLRITVADARFCKPLDHALIRSLAKSHEVLITVEEGSIGGFGSHVAQFLALNGLLDGTTKWSPMVLPDRYIDHGAPADQLAMAGLTPSHIAATVFNILGQTREALEIML |  |  | three time increase |
